The record followed here is paper PMC3418249, “Binding of Translationally Controlled Tumour Protein to the N-Terminal Domain of HDM2 Is Inhibited by Nutlin-3” (PLoS ONE, 2012).

Settings in all cases: both partners purified
The target in assay [1] is T1, recombinant full-length TCTP, purified (human (cDNA from AGS cells), UniProt P13693 1-172).
T1 construct: TCTP, called recombinant full-length TCTP; also called recombinant TCTP; TCTP protein; source: expressed as GST fusion (pGEX-6P-1), purified (GSTrap, on-column cleavage with precission protease, monoQ)
T1 sequence (looked up): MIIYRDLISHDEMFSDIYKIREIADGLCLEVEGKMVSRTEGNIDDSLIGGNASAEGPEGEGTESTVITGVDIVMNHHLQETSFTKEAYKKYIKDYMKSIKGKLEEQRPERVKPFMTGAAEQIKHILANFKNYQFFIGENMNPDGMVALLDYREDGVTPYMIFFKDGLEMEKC
In words: pull-down; biotinylated peptides (10 µg) on streptavidin Dynabeads M-280, incubated with purified HDM2 (1–125) (15 µM) or TCTP (15 or 30 µM) 4 h at 4°C; Western blot; repeated with DMSO or Nutlin-3 (2/20/200 µM).

Assay [2] has as its target T2, purified HDM2 (1–125) (human, UniProt Q00987 1-125).
T2 construct: source: expressed as GST fusion (pGEX-6P-1), purified (GSTrap, on-column cleavage with precission protease, monoS)
The assay is described as above.

The target in assay [3] is T2, purified HDM2 (1–125). In words: fluorescence polarisation; competition: 50 nM FAM-12-1 peptide, 250 nM HDM2 (1–125), competitors TH2/TH3 (50/200/600 µM), control peptide (600 µM), Nutlin-3 (200 µM), p53 peptide; PBS-0.005% Tween-20.
Assay [4] deals with T1, recombinant full-length TCTP, purified. In words: pull-down; cobalt beads coated with 20 µM his-tagged HDM2 (17–125), 4 h at 4°C with 7 µM TCTP protein, with or without 200 µM Nutlin-3; Western blot.

No end group written: not given here. FAM = carboxyfluorescein

B1: HDM2 α2 helix peptide (residues 43–65) (peptide)
peptide: GGGSAQKDTYTMKEVLFYLGQYIMTKR
modifications: biotin (position not given)
notes: spacer at the N-terminus; HDM2 α2 helix, residues 43-65; source: synthetic peptide (Mimotopes)
For the molecule B1, the binding result in assay [1] was “binds”.

B2: TH3 peptide (TCTP residues 107–133) (peptide)
peptide: GGGSRPERVKPFMTGAAEQIKHILANFKNYQ
modifications: also: biotin, position not given here
notes: spacer at the N-terminus; source: synthetic peptide (Mimotopes)
For the molecule B2, in the assay with purified HDM2 (1–125) [2], the binding result was “binds”.

B3: carboxyfluorescein (FAM) labeled 12-1 peptide (peptide)
peptide: {FAM}-RFMDYWEGL-NH2
notes: also called FAM-labeled p53 peptide (12.1); fluorescently labelled p53 peptide
Turning to B3, the binding result in the assay with purified HDM2 (1–125) [3] is recorded as “binds”.

B4: recombinant his-tagged HDM2 (residues 17–125) (domain or fragment, human, UniProt Q00987 17-125, looked up)
chain: SQIPASEQETLVRPKPLLLKLLKSVGAQKDTYTMKEVLFYLGQYIMTKRLYDEKQQHIVYCSNDLLGDLFGVPSFSVKEHRKIYTMIYRNLVVVNQQESSDSGTSVSEN
notes: also called recombinant HDM2 N-terminal domain; source: recombinant
In the case of B4, the binding result in assay [4] is “binds”.

B5: TH2 peptide (TCTP residues 81–110) (peptide)
peptide: GGGSTSFTKEAYKKYIKDYMKSIKGKLEEQRPER
modifications: also: biotin, position not given here
notes: spacer at the N-terminus; TCTP residues 81-110; source: synthetic peptide (Mimotopes)
With B5, the binding result with purified HDM2 (1–125) [2] is listed as “binds”.
